Consider 1 substance from patent CN117756939A.

The target in the experiment is 人源LILRB1 (human LILRB1, on HEK293T-hLILRB1, Jurkat-hLILRB1 or Daudi cells) (human). The experiment is described as follows: flow cytometry, blocking of PE-HLA-G tetramer (2 μg/mL) binding to HEK293T-hLILRB1 cells. In general terms: Flow cytometry measures light scatter and fluorescence of single cells or particles in a stream.

In general, IC50 refers to the midpoint of a concentration-inhibition curve. A low value points to higher potency. In turn, “BION-202 (Biond Biologics公司研发的靶向LILRB1人源化IgG4单克隆抗体) (antibody)” registered an IC50 of 0.021 µg/mL.
